# Results as given in the DeepSol protein solubility set.
# Test: soluble on expression in E. coli; label from the status in PepcDB or PDB records
row,Sequence,soluble on expression in E. coli
1,MAKGIMLHEVGEQVDQYLLIKSSTKGIASNGKPFLTLMLQDQSGDIEAKLWDAKQSDEVTYAPQTIVKVVGDVHHYRGRTQLKLRNIRPVSEQENVNIDDFLETAPIPKNEMMDTITQYIFEMKNPNIQRITRFLVKKHEAEFMDYPAATKNHHEFVSGLAYHVVSMLNLAKAIADLYPSLDRDLLYAGVILHDLGKVKELSGPVSTSYTVEGNLLGHISIMVTELSKAAEELQIDSEEVLILQHLILSHHGKAEWGSPKPPMVKEAEILHYIDNLDAKMNMMDRALERVKPGEYTERVFALENRSFYKPTFHK,not soluble
2,MAKKGPKRHLKRLAAPVRWELPRKIHKFTVRPLPGAHPMSESLPLLLIVRDILKYADNAREAKKIIKMGKVLVDGRVRKEEKLPVGLMDVVSLPDANENYRVLFDRKGRIKLKPTENPDVKLCKIKNKTVIKGGHIQLNLHDGRNIVIKVSDPTKAEEDVYKTGDTLLISIPEQEIKAHIPFEVGKLAYITGGKHVGDFAKIVEIERRGIYPDIVTLENMDGEKFKTVKDYVFVVGDEEPIIKLLEHHHHHH,soluble
3,MAKLDDWTDIFLDDEGNFRASADGDVQLVTGKAAYLQDVKHELETVLGSYPFDENYGTRLITYLQRENTELARQELIQDVEEVVMRHSFVVPGSVDVRANSWTLREIEFSVSFGVQTSGGIEPAELTVQITVDGVRVVRSE,not soluble
4,MAKLLITGGCGFLGSNLASFALSQGIDLIVFDNLSRKGATDNLHWLSSLGNFEFVHGDIRNKNDVTRLITKYMPDSCFHLAGQVAMTTSIDNPCMDFEINVGGTLNLLEAVRQYNSNCNIIYSSTNKVYGDLEQYKYNETETRYTCVDKPNGYDESTQLDFHSPYGCSKGAADQYMLDYARIFGLNTVVFRHSSMYGGRQFATYDQGWVGWFCQKAVEIKNGINKPFTISGNGKQVRDVLHAEDMISLYFTALANVSKIRGNAFNIGGTIVNSLSLLELFKLLEDYCNIDMRFTNLPVRESDQRVFVADIKKITNAIDWSPKVSAKDGVQKMYDWTSSILEHHHHHH,soluble
5,MAKNSPQDLINREIFSTNLNMLMAKKNIKQIDIHNKLGIPKSTITGYVKGRSLPTAGNVQKLADFFGVLKSDIDPRFDSNNIETNSNIIPSTLQKVTSTLSQLEHKRQLNVLDYAETQLEQQNTVEEPQATYYTYNYYDHAASAGTGQYLNDVQVETIELPVDYDADFVIPVYGDSMEPEYHSGDYVFIKLSINLSDGDIGVFEYYGDAYIKQLVINDSGAFLHSLNDKYDDILIDRDSDFRIIGEVIGSFTSKS,not soluble
6,MAKQPTVLWAQRESLVYLTIEVDEAKIEELKGEGNKLHFQGSSKTDKYEATLEFFDEIDPASVKHTGSSTRVVEITVQKKTPAWWPRLLQNKGKVHWLKVDFGKWKDEDEDDEAEDAGAGIGGGMANGFDLNQYMSQMGGAGGADFGGLEDDEEDDDMPDLEDNEEEEGKNGTRA,not soluble
7,MAKSLRASSHLNAKSVKRRGVFQKAVDAREQRISDKLKEDLLKQKLEDLKKKEEQGIDMDVDEKKSNEEAPRKKISTSGWRDGRHHTYKKAKLMKQSKKKTSFTRF,soluble
8,MAKVIFQDNFLLMGTNYHEKEANKVMAEIGKKSPYWDKDKDFISDYIKSNFKDIYKYYRVSTKDVEIVREPLNRHDPNAIKVMVNKTFVGYFPADLAKRLTPYVKKSSHYQMEATLTGRGGQYKTLKNDLKTVVTKKKDITYKLRLTILKVDRVSKSKNAGLLESIASWFLNLEHHHHHH,soluble
9,MAKWGQGDPRWIVAEREDGTNVNNWHWTARDATIWSKGKLRELLVGIAMENEAGRCEISELKQVEGEASCNSRKGKLIFFYEWNIKLAWKGTVKESGAKHKGLIEIPSLSEENEINDTEVNVSKKKGDGEILKDLMRTTGTAKVREALGEYLKALKTEFTTGMILPTKAVATQELTLQRKLNENKLQASPVALGVRIPTVALHLTELFDTTVEQLYSIFTVKELVQKFSKSPAVLEAERGGKFQMFDGNISGEYVELVTNRKIIMKWRCRNWPEALGFFPRTLCNS,not soluble
10,MALEGLKTSCCRPNEPLTTNSMAIAQEKAQHQQRSSLRNMTRPMIGRSGPKEASMTTRTRRETIVFAHPFRLRGIDRELPAGAYDVITDEELIEGLSFPVFRRVATMITVPCAPPRQSAVEMLTIEPDALRDARQADSSTSRA,not soluble
11,MALEPIDYTTHSREIDAEYLKIVRGSDPDTTWLIISPNAKKEYEPESTGSSFHDFLQLFDETKVQYGLARVSPPGSDVEKIIIIGWCPDSAPLKTRASFAANFAAVANNLFKGYHVQVTARDEDDLDENELLMKISNAAGA,soluble
12,MALLQISEPGLTAAPHQRRLAAGIDLGTTNSLVATVRSGKAQTLADEQLADEQLIADEQLIAGEQLIAGQQLIAGQQLINEKQRDLLPSVVHYHPQGIDVGWKARNLAALDPVNTISSVKRMMGRSLADIVQRYPNLPYQFHASENGLPMIQTARGLVNPVQVSAEILKTLAQRAQAALAGELDGVVITVPAYFDDAQRQGTKDAARLAGLHVLRLLNEPTAAAIAYGLDSGQEGVIAVYDLGGGTFDISILRLSRGVFEVLATGGDSALGGDDFDHLLADWLREQAGVATRDDHGIQRQLLDTAIAAKIALSEAETAVVSVAGWQGEVTREQLESLIAPQVKRTLMACRRALKDAGVTADEILEVVMVGGSTRVPLVREQVGQFFGRTPLTSIDPDKVVAIGAAIQADILVGNKPDSDMLLLDVIPLSLGLETMGGLVEKVIPRNTTIPAARAQEFTTFKDGQSAMMIHVLQGERELVKDCRSLARFTLRGLPPLPAGGAHIRVTFQVDADGLLSVTAMEKSTGVEASIQVKPSYGLSDDEIANMIKDSMANAQSDITARKLAEQRVDAARVLESLQGALAEDAALLSEQESAAIAQAVALLQQQMQGSDPQAIEAAIKALDAQTQDFAARRMDASIRRALAGHSVDEV,soluble
13,MALPKTGYTKTTADNFVIDSATVFTDFKYDKEKEEFTGIPMGATSGGVEIKTELSYRKVEVDGAYIMDVVGLNVLESATATMKANLIELTAENLRRSLNATMTDATTDEAPAGYKIIKPKRYLEEGDYIPNMAVVGIHNGTKQPIIVALDNGLVKSGLEIKTEDGKEVVIEQEITANASYEQLINDEFPFRIYYPSTSKNPIELTESL,not soluble
14,MALPQRQIVRAENVKIGISWQCALCDLDIYARPLPGAEVIYFGRMVTTHGRYWKDYRNSPQPTNGYETISFDVPLDLRPVVIAINFYEGEAPQGVSGEIRIAVDENTYAAPFHISATRGNRGQGVAKIIETGKASGNHSVIVDPLHIIRAR,not soluble
15,MALSSAPILITGASQRVGLHCALRLLEHGHQVIISYRTEHASVAQLRQAGAHTLHGDFSSEASIMAFIEQLKSHTSSLRAIVHNASEWLAETPGDEAENFTRMFSVHMLAPYLINLHCEALLHASDVADIVHISDDVTRKGSSKHIAYCATKAGLESLTLSFAARFAPLVKVNGIAPALLMFQPKDDAAYRANALAKSAMGIEPGAEVIYQSLRYLLDSTYVTGTTLTVNGGRHV,not soluble
16,MAMADEQFENYLVMCYDKLESKQQKFISDYNIYNFDEYCYDQDPCILQFKKNGQVLLEFSVVFIGSWSGKSNSWMWSWANENVADYARSKSNCLKDLQKITGSEVFINPLFECDQEMAYELAAFSIEYLDAEGMYMAPGERSDVFMAVMSPHAL,not soluble
17,MAMGKPMQVSRYWRHFREKYRLIGGKCENGHLLFPKRPICPICGSRNIEEFQFSGKGKVITWTIVRNPPSGFEYYKPYPLALVQLEEGPVVLAQLTDVEPEEIKEGMEVEMVTRKIREFDEDGLILYGYKFRPIIKSELEHHHHHH,not soluble
18,MAMLELLYTALLYLIQPLIWIRLWVRGRKAPAYRKRWGERYGFYRHPLKPGGIMLHSVSVGETLAAIPLVRALRHRYPDLPITVTTMTPTGSERVQSAFGKDVQHVYLPYDLPDALNRFLNKVDPKLVLIMETELWPNLIAALHKRKIPLVIANARLSARSAAGYAKLGKFVRRLLRRITLIAAQNEEDGARFVALGAKNNQVTVTGSLKFDISVTPQLAAKAVTLRRQWAPHRPVWIATSTHEGEESVVIAAHQALLQQFPNLLLILVPRHPERFPDAINLVRQAGLSYITRSSGEVPSTSTQVVVGDTMGELMLLYGIADLAFVGGSLVERGGHNPLEAAAHAIPVLMGPHTFNFKDICARLEQASGLITVTDATTLAKEVSSLLTDAVYRSFYGRHAVEVLYQNQGALQRLLQLLEPYLPPKTHLEHHHHHH,not soluble
19,MAMPEIDALLGLSFCLYFFDNKQHKLPHIHVKYGSYELIIAIETGECLEGYLPNKQRKRAENHILEHREQLMVMWNKAVNGENPGKLGDLCLEHHHHHH,not soluble
20,MAMSLREELWLWKKEKLAEHVANNLRKKKHEVWIARDREEILERVKELIPEGATVSAGGSLTLADTGVIELLRSGRYNFLDRAAAKTREEVEEIYRKSFWADYYFTSVNAITEDGKLVFLDGNGNRVAAVVFGPKNVVVIASVNKVVKDVEEARERLRYISPMNSKRLNLETPCTKTGFCADCSSPQRICDYFLVVESGVRQPGRFKVILTLEDFGLLEHHHHHH,not soluble
21,MANDVMNRNYDFFDPMNFFNEVGNLGRDMFSGDSSMKTDVVEHDKDYVVTAELPGFKKDDIHVDYHDETLRISGKTEVNQSAKDDDGRILRQERRSQNVARSFYLPGIDLKNVKATYADGILTLTLPKQTEVDGSHEISIDLEHHHHHH,soluble
22,MANFEDFLTLDLRIGTVTHAEEFKEARVPAIKLEIDFGELGMKQSSAQITKRYNPEDLIGQQIVAVVNFPPKRVAGFKSEVLVLGGVPEAGDVVLLQPNMELPNGTKIS,not soluble
23,MANKHHVYWYRHHIVNIIMIVDSKTSDWILIDTGLFYSEAFILKKIRRVLGELIPPKAIILTHGHFDHVGALRPLLQRFPNVPVYAHELELPFLTGQRHYVKPDPSVPGGLMAKLAWLYPYHAYDFSRIICPLPDDGTLPFFTDWRWIHTPGHTEGHVSLFRPSDRFLIAGDAFTTVKQESLLSVLAQKKEIHGPPAYFTPDWELAKTSVETLQKLEPAFAVTGHGQMMEGSSLHSGLKRLISQFEQVAVPDLEHHHHHH,soluble
24,MANQCFNQAKAVLEFRLDPCHLPQTTTYFSSKTGNQMICSLSERGVFFKTDTFSSLSRLVPSYQFKGIAARTVITLSGEKAVALELLHANEESCVPLLVSRDLNNVLLDWRLWADTYSLPMLMINEDNRLVVVKDRSDLRRFFSTTLHFRKKRFLLRYRNPLGLRLMIANQVAL,not soluble
25,MANQVNGNAVQLKEEEEPMDTSSVTHTEHYKTLIEAGLPQKVAERLDEIFQTGLVAYVDLDERAIDALREFNEEGALSVLQQFKESDLSHVQNKSAFLCGVMKTYRQREKQGSKVQESTKGPDEAKIKALLERTGYTLDVTTGQRKYGGPPPDSVYSGVQPGIGTEVFVGKIPRDLYEDELVPLFEKAGPIWDLRLMMDPLSGQNRGYAFITFCGKEAAQEAVKLCDSYEIRPGKHLGVCISVANNRLFVGSIPKNKTKENILEEFSKVTGLTEGLVDVILYHQPDDKKKNRGFCFLEYEDHKSAAQARRRLMSGKVKVWGNVVTVEWADPVEEPDPEVMAKVKVLFVRNLATTVTEEILEKSFSEFGKLERVKKLKDYAFVHFEDRGAAVKAMDEMNGKEIEGEEIEIVLAKPPDKKRKERQAARQASRSTAYEDYYYHPPPRMPPPIRGRGRGGGRGGYGYPPDYYGYEDYYDDYYGYDYHDYRGGYEDPYYGYDDGYAVRGRGGGRGGRGAPPPPRGRGAPPPRGRAGYSQRGAPLGPPRGSRGGRGGPAQQQRGRGSRGSRGNRGGNVGGKRKADGYNQPDSKRRQTNNQQNWGSQPIAQQPLQQGGDYSGNYGYNNDNQEFYQDTYGQQWK,soluble
26,MANSLCFFSSPPTFCFQSPSKNPKPSHFFSTNDNTSSLVQKRELLQTSRSQSFEVKAANNNPQGTKPNSLVCANCEGEGCVACSQCKGGGVNLIDHFNGQFKAGALCWLCRGKKEVLCGDCNGAGFIGGFLSTFDE,soluble
